# Assay results reported in US20180086836A1 (GLENMARK PHARMACEUTICALS S A, published 2018).
# T1: human CCR6 (human, UniProt P51684 1-374)
# T1 construct: Full length human CCR6 on transfected BAF or CHO cells, or native on human PBMCs; also called hsCCR6; CCR6 receptor
# T1 sequence: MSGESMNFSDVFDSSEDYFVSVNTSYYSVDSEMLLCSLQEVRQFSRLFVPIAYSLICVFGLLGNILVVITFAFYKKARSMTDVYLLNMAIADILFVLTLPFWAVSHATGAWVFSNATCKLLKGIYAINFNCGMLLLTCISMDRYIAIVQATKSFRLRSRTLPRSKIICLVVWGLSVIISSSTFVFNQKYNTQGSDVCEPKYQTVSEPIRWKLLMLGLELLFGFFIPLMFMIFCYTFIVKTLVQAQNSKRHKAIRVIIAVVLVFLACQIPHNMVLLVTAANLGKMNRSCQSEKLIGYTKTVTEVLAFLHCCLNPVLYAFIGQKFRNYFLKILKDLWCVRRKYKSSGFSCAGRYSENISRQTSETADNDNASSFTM
# Legend:
# [1] = biological target: T2, recombinant human N-terminal CCR6 Fc (human); experiment: direct ELISA, Fc fusion coated at 2 µg/ml, anti-human F(ab')2-HRP
# T2 construct: also called human CCR6-Fc; hsCCR6-Nter-Fc
# Method: (§1) FIG. 8: Direct binding ELISA on immobilized recombinant human N-terminal CCR6 Fc. Binding of humanized 4H11 H5L1 antibody on human N terminus fragment of CCR6 was measured by direct ELISA. Various concentrations (ranging from 10 to 0.00006 μg/ml) of humanized 4H11 H5L1 in IgG1 and IgG4HS backbones were incubated with 2 μg/ml of either recombinant human N terCCR6-Fc tagged protein (FIG. 8A) or recombinant cynomologus N-terminal peptide Fc (FIG. 8B), coated overnight at 4° C. in a 96-well plate. Binding of humanized 4H11 H5L1 antibody to Nter CCR6-Fc protein was detected by horseradish peroxidase (HRP)-conjugated anti-human (Fab)′2-specific antibody.
# (§2) A binding ELISA was performed to test the reactivity of 4H11 VH5/VL1 IgG1 and 4H11 VH5/VL1 IgG4HS antibodies on peptides consisting of the N-terminal region of CCR6 from human and cynomologus species. Briefly, 96 well-microtiter plates (Costar USA, distributor VWR AG, Nyon, Switzerland) were coated with 100 μl of recombinant human and cynomologus N-terminus peptide-Fc at 2 μg/ml in PBS. Plates were incubated overnight at 4° C. and were then blocked with PBS 2% BSA (Bovine Serum Albumine, PAA Laboratories, Pasching, Austria) at room temperature (RT) for one hour. The blocking solution was removed and various concentrations of 4H11 VH5/VL1 IgG1 and 4H11 VH5/VL1 IgG4HS were added. The plates were incubated at RT for 1 hour, then washed six times with PBS 0.01% Tween-20 (Sigma-Aldrich Chemie GmbH, Buchs, Switzerland) and a goat-anti human Ig F(ab′)2 fragment specific-HRP (Jackson ImmunoResearch Europe Ltd, Newmarket, UK). After washing, the plates were incubated with TMB substrate (Bio-Rad Laboratories AG, Reinach, Switzerland) to reveal antibody binding. The reaction was stopped by adding 2M H₂SO₄ and the optical density was read at 450 nm (OD 450 nm) on a Synergy HT2 spectrophotometer (Biotek, USA; distributor: WITTEC AG, Littau, Switzerland).
# [2] = biological target: T3, recombinant cynomologus N-terminal CCR6 peptide Fc (cynomolgus monkey; human); experiment: as above
# T3 construct: It differs from the human construct only in the CCR6 N-terminus; also called Cyno CCR6-Fc; cynoCCR6-Nter-Fc
# Method: as §1, §2
# [3] = biological target: T2, recombinant human N-terminal CCR6 Fc; experiment: SPR (BIAcore 2000), Fc-fused peptide immobilized on CM5 chip, antibody as analyte, bivalent analyte model
# Method: (§3) Kinetic binding affinity constants (KD) were measured on Fc-fused huCCR6 N-terminal and cynoCCR6 N-terminal peptides with the 4H11 VH5/VL1 IgG4hs antibody as analyte. Same measurements were performed using the 4H11 VH5/VL1 IgG1 antibody and chimeric 4H11 antibody for comparison. Measurements were conducted on a BIAcore 2000 (GE Healthcare—BIAcore, GE Healthcare Europe GmbH, Glattbrugg, Switzerland) at room temperature, and analyzed with the BiaEvaluation software (BIAcore; v4.1, GE Healthcare Europe GmbH) using a bivalent analyte kinetic affinity model.
# (§4) A CM5 research grade sensor chip (GE Healthcare Europe GmbH; ref. BR-1000-14) was activated by injecting 35 μl of a 1:1 N-hydroxysulfosuccinimide (NHS)/1-Ethyl-3-[3-dimethylaminopropyl]carbodiimide Hydrochloride (EDC) solution (v/v; 5 μl/min flow-rate; on flow paths 1 and 2). Fc-fused human or cynomologus CCR6 N-terminal peptides were diluted to a final concentration of 25 nM in acetate buffer pH 4.5 (GE Healthcare Europe GmbH, BR-1003-50; one pH unit below pI) and subsequently immobilized on the previously activated CM5 sensor chip by injecting 20 μl on both flow path 1 and 2 (5 μl/min); this corresponded to approximately 300 response units (RUs). The human or cynomologus CCR6 N-terminal peptides coupled CM5 sensor chip was then deactivated by injecting 35 μl of ethanolamine solution (5 μl/min). […]
# [4] = biological target: T3, recombinant cynomologus N-terminal CCR6 …; experiment: as above
# Method: as §3, §4
# [5] = biological target: T2, recombinant human N-terminal CCR6 Fc; experiment: SPR (BIAcore 2000), Fc-fused human CCR6 N-terminal peptide immobilised on CM5, antibody as analyte, bivalent analyte model
# Method: as §3, §4
# [6] = biological target: T3, recombinant cynomologus N-terminal CCR6 …; experiment: SPR (BIAcore 2000), Fc-fused cynomolgus CCR6 N-terminal peptide immobilised on CM5, antibody as analyte, bivalent analyte model
# Method: as §3, §4
# [7] = biological target: T1, human CCR6; experiment: flow cytometry blocking assay on CCR6-transfected BAF cells; blocked ligand: recombinant human CCL20 at 0.5 µg/ml, detected with biotinylated anti-CCL20 and streptavidin-APC
# Method: Cells transfected with CCR6 were incubated at 4° C. for 20 minutes with humanized 4H11-VH5/VL1 serially diluted (from 100 to 0.00001 μg/ml) in FACS buffer containing 0.1% of azide. Cells were centrifuged and incubated at 4° C. for 20 minutes with 0.5 μg/ml of recombinant human CCL20. To detect CCL20 bound to CCR6, cells were incubated with a biotinylated goat anti-human CCL20, followed by incubation with Allophycocyanin (APC)-labelled Streptavidin diluted at 1/100 in FACS buffer containing 0.1% of azide. To evaluate blocking potential of humanized 4H11 VH5/VL1 IgG4HS, percentage of CCL20 was measured at each concentration of antibody. Maximum binding activity of CCL20 to CCR6 was calculated as a percentage of that seen for the isotype control.
# To determine whether 4H11 VH5/VL1 IgG4HS neutralizes CCR6-mediated biological function through a direct inhibition of CCL20-CCR6 interaction, an assay using flow cytometry approach was set up. Briefly, BAF cells transfected with CCR6 were counted and diluted at 1*10⁶ cells/ml in FACS buffer containing 0.1% of azide. […] Then, CCL20 was detected using a biotinylated anti-human CCL20 (R&D Systems, clone BAF360) followed by allophycocyanin (APC)-labelled streptavidin diluted in FACS buffer+0.1% azide at 1 μg/ml and 1/100, respectively. Cells were washed two times in FACS buffer, 0.1% azide and samples were analysed by flow cytometry. […]
binder,measurement,setting,value
"4H11 VH5/VL1 IgG4HS antibody (antibody, V domains shown, also called humanized 4H11 H5L1 IgG4HS; humanized 4H11-VH5/VL1) VH: EVQLVESGGGLVQPGGSLRLSCAASGFSFSDYYMYWVRQAPGKGLEWVSYITNGGITYYPDSVKGRFTISRDNSKNTLYLQMNSLRAEDTAVYYCTSPLRGAWFAYWGQGTLVTVSS VL: DVVMTQSPLSLPVTLGQPASISCRSSQSIVHSNGNTYLEWYQQRPGQSPRLLIYKVSNRFSGVPDRFSGSGSGTDFTLKISRVEAEDVGVYYCFQGSHVPLTFGQGTKLEIK",EC50 (read off the curve),[1],~0.06 µg/mL
same,EC50 (read off the curve),[2],~0.2 µg/mL
same,Kd,[3],1.56 nM
same,Kd,[4],4.67 nM
same,koff,[5],0.000798 s⁻¹
same,kon,[5],510000 M⁻¹ s⁻¹
same,koff,[6],0.0015 s⁻¹
same,kon,[6],320000 M⁻¹ s⁻¹
same,IC50 (read off the curve),[7],~0.5 µg/mL
